Laboratory results from patent US20190276551A1 (UNIVERSITY MEDICAL CENTER HAMBURG EPPENDORF, published 2019).

B1: MU413 (VHH)
VHH: DVQLQASGGGLVQTGDSLTVSCAASGLSFTRYTMGWYREVPGKERREFVAAVKPAGDSAYYGASVKGRFTASRDNAKNTVTLQMNSLKPEDTAIYYCAAGFPVLTALHIADPDYWGQGTQVTVSP
notes: His6-Myc-tagged monovalent VHH; also called I-15.2b; family 13
B2: MU1103 (VHH)
VHH: DVQLQASGGGLVQAGGSLRLSCAASEFTFDDYVIGWFRQAPGKEREGVSSISSDGSTYYADSVKGRFTISSDNAKNTVYLHMNSLKPEDTAVYYCAADVTLNPFTGWTTRSGPMYRYEYDYWGQGTQVTVSS
notes: His6-Myc-tagged monovalent VHH; also called s-24.1c; family 22
B3: WF129 (VHH)
VHH: DVQLQASGGGLVQAGGSLRLSCEFSGRTFSGFAMGWFRQFPGKEREFVAAINWSGSSVDYSDSVKGRFTISRDNVKSTMYLVMNSLKPEDTAVYYCAEARSAELGSSRKIQGYDQWGRGTQVTVSS
notes: His6-Myc-tagged monovalent VHH; also called I-17.1b; family 18
B4: WF141 (VHH)
VHH: DVQLQASGGGLVQAGGSLRLSCEFSGRTFSGFAMGWFRQFPGKEREFVAAINWSGSSVDYSDSVKGRFTISRDNVKSTMYLVMNSLKPEDTAVYYCAEARSAELGSSRKIQGYDQWGRGTRVTVSS
notes: His6-Myc-tagged monovalent VHH; also called I-17.1c; family 18
B5: Jk20 (VHH)
VHH: QVQLQESGGGLVQAGGSLRLSCAISGRTFIADMGWFRQAPGKEREFQAGITWFGGSTYYADSVKGRFTISRDNTKNTLYLQMNSLKPEDTAIYYCAAGLKRIGDQREADYWGQGTQVTVSS
notes: His6-Myc-tagged monovalent VHH; also called I-13.1a; family 8
B6: Jk27 (VHH)
VHH: EVQLVESGGGLVQAGGSLRLSCAISGRTFIADMGWFRQAPGKEREFQAGITWFGGSTYYADSVKGRFTISRDNTKNTLYLQMNSLKPEDTAIYYCAAGLKRIGDQREADYWGQGTQVTVAS
notes: His6-Myc-tagged monovalent VHH; also called s-13.1a; family 8
B7: Jk26 (VHH)
VHH: QVQLQESGGGLVQAGGSVRLSCAISGRTFINDMGWFRQAPGKEREFQAGITWFGGSTYYADSVKGRFTISRDNTKNTLYLQMNSLKPEDTAIYYCAAGLKRIGDQREADYWGQGTQVTVSS
notes: His6-Myc-tagged monovalent VHH; also called I-13.1b; family 8
B8: MU727 (VHH)
VHH: DVQLQASGGGLVQAGGSLRLSCAGSGRTFSSYAMGWFRQAPGKEREFVASISWSGSRTNYGVPVKGRFTISRDNAKNTVYLQMSSLKPEDTAVYYCAADRFAVAIGTHDLDYWGQGTQVTVSS
notes: His6-Myc-tagged monovalent VHH; also called s-14.1d; family 9
B9: Jk25 (VHH)
VHH: QVKLQESGGGLVQPGGSLRLSCVASGSISSIITMGWYRQAPGKQREFVARVIIGGSTGYADSVKGRFTISRDNTKNTVYLEMNSLKPEDTAVYYCNAGNPGTSYHYWGQGTQVTVSS
notes: His6-Myc-tagged monovalent VHH; also called I-9.3a; family 6
B10: Jk24 (VHH)
VHH: QVQLQESGGGLVQPGGSLRLSCAASGIILRIYDMGWYRQAPGKQRELVAEITSGGSTNYADSVKGRFTISRDNAENTVSLQMNSLKPGDTAVYYCNAHHTFAGAYWGQGTQVTVSS
notes: His6-Myc-tagged monovalent VHH; also called I-8.2c; family 2
B11: Jk31 (VHH)
VHH: QVQLQESGGGLVQPGGSLRLSCAASGIILRLYDMGWYRQTPGKQRELVAEITSGGSTNYADSVKGRFTISRDNAENTVSLQMNSLKSGDTAVYYCNADHTFAGVYWGQGTQVTVSS
notes: His6-Myc-tagged monovalent VHH; also called I-8.2d; family 2
B12: Jk30 (VHH)
VHH: QVQLQESGGGLVQPGGSLRLSCAASGIILRIYDMGWYRQAPGKQRELVAAITSGGRTNYADSVKGRFTISRDNAENTVSLQMNSLKSGDTAVYYCNADHTFAGVYWGQGTQVTVSS
notes: His6-Myc-tagged monovalent VHH; also called I-8.2b; family 2
B13: Jk32 (VHH)
VHH: QVQLQESGGGLVQPGGSLRLSCAASGSTLRLYDMGWYRQADGKQRELVAEITSGGSTNYANSVKGRFTISRDNAENTVSLQMNSLKPEDTAVYYCNAEHTFMGAYWGQGTQVTVSS
notes: His6-Myc-tagged monovalent VHH; also called I-8.2e; family 2
B14: Jk46 (VHH)
VHH: QVQLQESGGGLVQAGGSLRLSCAASGRTFSSVAMGWFRQAPGKEREFVATINWSGGRTTYADSVKGRFTISRDSAKNTVYLQMNSLKPEDTAVYYCAADRFSVVAVEYDYWGQGTQVTVSS
notes: His6-Myc-tagged monovalent VHH; also called family 7
B15: JK12 (VHH)
VHH: QVQLQESGGGLVQPGGSLRLSCVASERIFSRNTMGWYRQAPGKQRELVARIASLGITNYADSVKGRFTISSDNAKNTVYLQMNNLKPEDTAVYYCNYWHYAAGRDYWGQGTQVTVSS
notes: His6-Myc-tagged monovalent VHH; also called I-9.1a; family 4
B16: Jk14 (VHH)
VHH: EVQLVESGGGLVQAGGSLRLSCVASERIFSRNTMGWYRQAPGKQRELVARIASLGITNYADSVKGRFTISSDNAKNTVYLQMNNLKPEDTAVYYCNYWHYAAGRDYWGQGTQVTVSS
notes: His6-Myc-tagged monovalent VHH; also called I-9.1b; family 4
B17: Jk42 (VHH)
VHH: QVKLQESGGGLVQPGGSLRLSCVASERIFSRNTMGWYRQAPGKQRELVAYITSLGIANYADSVKGRFTISSDNAKNTVYLQMNNLKSEDTAVYNCNYWHYAAGRDYWGQGTQVTVSS
notes: His6-Myc-tagged monovalent VHH; also called I-9.1d; family 4
B18: MU1065 (VHH)
VHH: DVQLQESGGGLVQAGDSLRLSCAASGPHFNNYAIGWFRQAPGKEREFVAGISWSSGSLLYSDSVKGRFTISRDNDKNTAYLQMNSLKPEDTALYYCAAQYQERYYSDFSLKEKGMEYWGKGTLVTVSS
notes: His6-Myc-tagged monovalent VHH; also called I-19.1b; family 19
B19: Jk34 (VHH)
VHH: QVQLQESGGRLVQPGGSLRLSCAASGRTFSNYAMAWFRQGPGKEREFVAAISAADSTLYADFVKGRFTISRDNAKNTVYLQMNSLKPEDTAVYYCAARWWIAVRAPAEYNYWGQGTQVTVSS
notes: His6-Myc-tagged monovalent VHH; also called I-14.2c; family 11
B20: Jk35 (VHH)
VHH: QVKLQESGGRLVQPGGSLRLSCAASGRTFSNYAMAWFRQGPGKEREFVAAISAADSTLYADFVKGRFTISRDNAKNTVYLQMNSLKPEDTAVYYCAARWWIAVRAPAEYNYWGQGTQVTVSS
notes: His6-Myc-tagged monovalent VHH; also called I-14.2d; family 11
B21: MU1105 (VHH)
VHH: DVQLQASGGGLVQAGGSLRLSCAASGFTFDDYVIGWFRQAPGKEREGVSSISSSGSIYYADSVKGRFTISSDNAKNTVYLQMNSLKPEDTAVYFCAADVTLNPFTGWDTRSGPMYRYEYDYWGQGTQVTVSS
notes: His6-Myc-tagged monovalent VHH; also called I-24a; I-24.1a
B22: WF140 (VHH)
VHH: DVQLQASGGGSVQAGGSLRLSCAASGLSFSDYAMGWFRQEPGKERRFVASIRSSGGTTYAESVKGRFTISRDNAKNTMYLQMNNLKPEDTAVYYCAADRLVITKLSIADPGYWGQGTQVTVSS
notes: also called s-15a; s-15.1a
B23: WF114 (VHH)
VHH: VQLQESGGGLVQAGGSLRLSCAASGFTFDDYVIGWFRQAPGKECEGVSSISNNNSTYYADSVKGRFTIASDNAKNTVYLQMNSLKPEDTAVYYCAADVTLNPFTGWNTRSGPMYRYEYDYWGQGTQVTVSS
notes: His6-Myc-tagged monovalent VHH; also called s+/-24b; s-24.1b
B24: WF32 (VHH)
VHH: QVQLQESGGGLVQAGGSLRLSCAASGIILRIYDMGWYRQAPGKQRELVAAITSGGSTNYADSVKGRFTISRDNAKSMVYLQMNSLKPEDTAVYYCNAWHVFRGNYWGQGTQVTVSS
notes: His6-Myc-tagged monovalent VHH; also called I-8.2f; family 2
B25: WF139 (VHH)
VHH: SGGGLVQAGGSQRLSCAASGHTFSSYSMAWFRQAPGKEREFVAANIMSGTNTYYADSVRGRFTMSRDIAKNTVYLQMNSLKEEDTALYYCAAADRFRGWATWRDDPDQYDYWDQGTQVTVSS
notes: His6-Myc-tagged monovalent VHH; also called s-19b; s-19.1b
B26: MU397 (VHH)
VHH: DVQLQASGGGLVQAGGSLRLSCAPSGGTFDAYDMGWYREAPGKKRQFVAAVRSGGGTTRYADSVKGRFTISRDDAKDTVFLQMNSLKPEDTALYYCAADRWGLFSLSIATPTHWGQGTQVTVSS
notes: His6-Myc-tagged monovalent VHH; also called L-15.1a; I-15.1a
B27: MU523 (VHH)
VHH: DVQLQESGGGLVQAGSSLRISCAVSGVRLDNYAMGWFRQAPGKERESVAGISWSSGTLLYSDSVKGRFAISRDNAKNTVYLQMNSLKPEDTAVYYCAAQYQDRYYDEFTWKEKDMDYWGKGTLVTVSS
notes: His6-Myc-tagged monovalent VHH; also called L-19.1a; I-19.1a
B28: MU1068 (VHH)
VHH: DVQLQASGGGSVQEGESLKLSCVGSGRTFSDWAMGWYRQAPGKDREFVAAVSGAGRGGKPSYANSVKGRFTVSRDNAKNTVYLQMDNLKPEDTAVYYCAADRLVLVALSIADPGFWGQGTRVTVSS
notes: also called L-15.1b; I-15.1b
B29: MU370 (VHH)
VHH: DVQLQASGGGSVQAGGSLTLSCRYSGGFVFRVSSMGWYRQAPGNQRELIATITVGGKTNYKDSVQGRFIISRNDTTVTLQMNRLQPEDTAVYYCNLASTAVGADTWGQGTRVTVSS
notes: also called I-9.2a
B30: MU274 (VHH)
VHH: DVQLQESGGGLVQAGGSLRLSCAASGVSFSRYTMGWYREVPGKERREFVAAVRPSGDSTYYGNSVKGRFSISRDDDKNIVYLQMNSLKPEDTAVYYCAAGFPVLVALSIADPDYWGQGTQVTVST
notes: also called L-15.2a; I-15.2a
B31: MU415 (VHH)
VHH: VQLQASGGGLVQAGGSLRLSCTVSGFTSDDYTVGWFRQAPGLKREGLSCLSRRDGRFYHSNSVKGRFTMSSDDNKNTVYLQLDSLKPDDTAVYYCAATTSVVVLLAPNWYEYWGQGTQVTVSS
notes: also called L+15; I+15b

The binders below were run against T1, human CD38 on cells (human, UniProt P28907 1-300) (assay: binding assays of Example 4).
T1 construct: also called native CD38; CD38 on LP-1 myeloma cells, CD38-transfected NIH-3T3 cells, blood leukocytes, CD38-transfected DC27.10 cells

**Q.** Does B1 bind?
**A.** binds

**Q.** Does B2 bind?
**A.** binds

**Q.** Does B3 bind?
**A.** binds

**Q.** Does B4 bind?
**A.** binds

**Q.** Does B5 bind?
**A.** binds

**Q.** Does B6 bind?
**A.** binds

**Q.** Does B7 bind?
**A.** binds

**Q.** Does B8 bind?
**A.** binds

**Q.** Does B9 bind?
**A.** binds

**Q.** Does B10 bind?
**A.** binds

**Q.** Does B11 bind?
**A.** binds

**Q.** Does B12 bind?
**A.** binds

**Q.** Does B13 bind?
**A.** binds

**Q.** Does B14 bind?
**A.** binds

**Q.** Does B15 bind?
**A.** binds

**Q.** Does B16 bind?
**A.** binds

**Q.** Does B17 bind?
**A.** binds

**Q.** Does B18 bind?
**A.** binds

**Q.** Does B19 bind?
**A.** binds

**Q.** Does B20 bind?
**A.** binds

What follows are binders tested against T2, human CD38 protein immobilised on AR2G biosensor (human, UniProt P28907 43-300, limits assumed) (assay: Octet BLI, immobilised CD38).
T2 construct: Construct used on the Octet is not described; also called immobilised human CD38

**Q.** For B21, which koff is on record?
**A.** < 0.0003 s⁻¹

**Q.** With B22 as the binder, how does the koff read?
**A.** 0.00054 s⁻¹

**Q.** With B23 as the binder, how does the koff read?
**A.** < 0.00014 s⁻¹

**Q.** Which koff does the source give for B24 here?
**A.** 0.00026 s⁻¹

**Q.** How did the koff turn out when B25 was run?
**A.** < 0.00022 s⁻¹

What follows are binders tested against T3, soluble, non-glycosylated, recombinant human CD38 (human, UniProt P28907 43-300, Alexa 647 conjugate) (assay: micro-scale thermophoresis, n = 2).
T3 construct: also called recombinant human non-glycosylated extracellular domain of CD38

**Q.** B26 was tested. Which Kd did it give?
**A.** 1 nM

**Q.** With B27 as the binder, how does the Kd read?
**A.** 3 nM

**Q.** With B28 as the binder, how does the Kd read?
**A.** 1.38 nM

**Q.** B29 was tested. Which Kd did it give?
**A.** 225 nM

**Q.** Which Kd does the source give for B30 here?
**A.** 3 nM

**Q.** B31 was tested. Which Kd did it give?
**A.** 23 nM
